Data: US20060233822A1 (YANG SHENG TANG, published 2006)

How the values were obtained:
[1] = biological target: 7-peptide SPPNVRT; assay: phage display panning on coated MAb; 1 clone
[2] = biological target: 7-peptide STLFMNF; assay: phage display panning on coated MAb; 1 clone
[3] = biological target: 7-peptide SPKMPIL; assay: phage display panning on coated MAb; 1 clone
[4] = biological target: 7-peptide SAHVLST; assay: phage display panning on coated MAb; 1 clone
[5] = biological target: T1, C149-mut-8H3; assay: dot blot of E. coli lysate supernatant
T1 chain: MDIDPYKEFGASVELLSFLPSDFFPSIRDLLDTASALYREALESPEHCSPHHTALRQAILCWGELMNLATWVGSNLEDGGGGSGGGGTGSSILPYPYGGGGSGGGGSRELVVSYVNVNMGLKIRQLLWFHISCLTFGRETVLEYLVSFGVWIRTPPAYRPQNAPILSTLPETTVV

[6] = biological target: polypeptide 209 (hepatitis E virus); assay: ELISA with 8C11
[7] = biological target: 7-peptide ALWGPTS; assay: phage display panning on coated MAb; 2 clones
[8] = biological target: 7-peptide HPTLLRI; assay: phage display panning on coated MAb; 5 clones
[9] = biological target: 7-peptide SLPTLTL; assay: phage display panning on coated MAb; 1 clone
[10] = biological target: 7-peptide ITNDFKQ; assay: phage display panning on coated MAb; 1 clone
[11] = biological target: 7-peptide PVQMPWL; assay: phage display panning on coated MAb; 1 clone
[12] = biological target: C149-mut-8C11; assay: dot blot of E. coli lysate supernatant
[13] = biological target: 7-peptide NHWASPR; assay: phage display panning on coated MAb; 1 clone
[14] = biological target: 7-peptide SLVTGIL; assay: phage display panning on coated MAb; 1 clone
[15] = biological target: 7-peptide SAPSSKN; assay: phage display panning on coated MAb; 1 clone
[16] = biological target: 7-peptide VSWNSLV; assay: phage display panning on coated MAb; 1 clone
[17] = biological target: 7-peptide INQKPTL; assay: phage display panning on coated MAb; 1 clone
[18] = biological target: 7-peptide SSMFFYR; assay: phage display panning on coated MAb; 1 clone
[19] = biological target: 7-peptide SSYEWFI; assay: phage display panning on coated MAb; 1 clone
[20] = biological target: 7-peptide YQDSAKT; assay: phage display panning on coated MAb; 2 clones

B1: monoclonal antibody 8H3 (antibody, V domains shown)
VH: QVQLKESGPGLVAPSQSLSITCTVSGFSLIGYGVNWVRQPPEKGLEWLGMIWGDGSTDYNSALKSRLSITKDNSKSQVFLKMNSLQTDDTARYYCAMGVRPDPFDYWGQGTLVTVSA
VL: NIMMTQSPSSLAVSAGEKVTMSCKSSQSVLYSSNQKNYLAWYQQKPGQSPKLLIYWASARESGVPDRFTGSGSGTDFTLTINSVQTEDLAVYYCHQYLSSYTFGGGTKLEIKR
notes: also called MAb 8H3; HRP-8H3
binding result [1]: binds
binding result [2]: binds
binding result [3]: binds
binding result [4]: binds
binding result [5]: binds
8C11 increases 8H3's reactivity [6]: 3 fold
binding result [7]: binds

B2: monoclonal antibody 8C11 (antibody, V domains shown)
VH: QVTLKESGPGILQPSQTLSLTCSFSGFSLSTSGMGVGWIRQPSGKGLEWLAHIWWDDVKRYSPALKSRLTISKDTSSSQLFLKIASVDTADTATYYCARIKSVITTGDYALDYWGQGTSVAVSS
VL: DIQMTQSPASLSVSVGETVTITCRASEIIYSNLAWYQQKQGKSPQLLVYSATNLAEGVPSRFSGSGSGTQYSLKINSLQSEDFGSYYCQHFWGNPWTFGGGTKLEIKR
notes: also called MAb 8C11; HRP-8C11
binding result [8]: binds
binding result [9]: binds
binding result [10]: binds
binding result [11]: binds
binding result [12]: binds

B3: monoclonal antibody 13D8 (antibody, V domains shown)
VH: DVQLQESGPGLVKPSQSLSLSCSVTGYSITSGYYWNWIRQFPGNKLEWMGYIGYDGSNKYNPSLKNRISITRDTSKNQFFLKLTSVTTGDTATYYCVRDVKYYFDYWGQGTTVTVSS
VL: DIQMTQSPASLSVSVGETVTITCRASENIYSNLAWYQQKQGKSPQLLVYAATNLADGVPSRFSGSGSGTQYSLKISSLQSEDFGSYYCQHFWGSPWTFGGGTKLEIKR
notes: also called MAb 13D8; HRP-13D8
binding result [13]: binds
binding result [14]: binds
binding result [15]: binds
binding result [16]: binds
binding result [17]: binds
binding result [18]: binds
binding result [19]: binds
binding result [20]: binds
